Results taken from US20180222956A1.
Read-outs that look alike come from different tables or passages of the source.

Tests used:
Experiment in all cases: cell-based or functional assay
[1] = biological target: Human TGFβ3 (human) (UniProt P10600)
[2] = biological target: Human TGFβ1 (human) (UniProt P01137)
[3] = biological target: Human TGFβ3 (human) (UniProt P10600); remark: listed apart in the source
[4] = biological target: Human TGFβ1 (human) (UniProt P01137); remark: listed apart in the source

Sequence of hTβRIIshort(23-159)-hG2Fc (Fc fusion) (chain): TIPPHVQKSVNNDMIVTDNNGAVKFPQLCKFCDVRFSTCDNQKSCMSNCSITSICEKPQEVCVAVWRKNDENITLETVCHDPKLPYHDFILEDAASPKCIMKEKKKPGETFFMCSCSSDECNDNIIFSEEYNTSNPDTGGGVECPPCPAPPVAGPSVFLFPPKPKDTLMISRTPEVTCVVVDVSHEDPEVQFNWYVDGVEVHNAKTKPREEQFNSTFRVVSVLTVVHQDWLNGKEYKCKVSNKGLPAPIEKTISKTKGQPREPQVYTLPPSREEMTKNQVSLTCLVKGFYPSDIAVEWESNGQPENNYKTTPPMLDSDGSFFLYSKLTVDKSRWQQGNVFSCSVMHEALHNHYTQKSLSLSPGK
Sequence of Human TGFβ3 (human) (P10600 301-412 limits assumed): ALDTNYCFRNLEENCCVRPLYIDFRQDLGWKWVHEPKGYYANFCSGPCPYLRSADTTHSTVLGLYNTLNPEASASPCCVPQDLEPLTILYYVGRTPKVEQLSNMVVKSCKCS
Sequence of Human TGFβ1 (human) (P01137 279-390 limits assumed): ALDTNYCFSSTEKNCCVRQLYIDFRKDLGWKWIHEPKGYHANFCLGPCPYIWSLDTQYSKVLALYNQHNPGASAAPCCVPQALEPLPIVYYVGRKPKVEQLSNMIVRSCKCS
Sequence of hTβRIIshort(29-159)-hG2Fc (Fc fusion) (chain): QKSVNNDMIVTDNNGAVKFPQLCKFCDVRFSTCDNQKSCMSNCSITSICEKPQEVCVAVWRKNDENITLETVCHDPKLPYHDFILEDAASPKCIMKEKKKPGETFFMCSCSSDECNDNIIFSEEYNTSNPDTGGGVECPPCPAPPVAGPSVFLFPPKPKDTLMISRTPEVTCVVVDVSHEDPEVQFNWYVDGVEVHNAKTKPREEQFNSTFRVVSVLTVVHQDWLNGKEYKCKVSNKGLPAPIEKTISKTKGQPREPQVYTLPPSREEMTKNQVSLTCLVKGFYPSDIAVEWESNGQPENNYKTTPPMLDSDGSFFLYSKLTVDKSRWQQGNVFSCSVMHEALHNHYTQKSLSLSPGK
Sequence of hTβRIIshort(23-153)-hG2Fc (Fc fusion) (chain): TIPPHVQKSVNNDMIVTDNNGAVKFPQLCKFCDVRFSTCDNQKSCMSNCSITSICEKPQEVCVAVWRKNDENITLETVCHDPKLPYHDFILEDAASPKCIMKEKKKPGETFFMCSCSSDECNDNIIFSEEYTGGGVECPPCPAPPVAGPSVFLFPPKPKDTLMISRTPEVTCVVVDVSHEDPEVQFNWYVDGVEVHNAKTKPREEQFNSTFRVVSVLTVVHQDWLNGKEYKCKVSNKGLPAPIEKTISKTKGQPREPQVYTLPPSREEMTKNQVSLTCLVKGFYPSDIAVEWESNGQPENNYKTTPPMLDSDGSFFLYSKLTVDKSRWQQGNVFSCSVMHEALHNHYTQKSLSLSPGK
Sequence of hTβRIIshort(35-159)-hG2Fc (Fc fusion) (chain): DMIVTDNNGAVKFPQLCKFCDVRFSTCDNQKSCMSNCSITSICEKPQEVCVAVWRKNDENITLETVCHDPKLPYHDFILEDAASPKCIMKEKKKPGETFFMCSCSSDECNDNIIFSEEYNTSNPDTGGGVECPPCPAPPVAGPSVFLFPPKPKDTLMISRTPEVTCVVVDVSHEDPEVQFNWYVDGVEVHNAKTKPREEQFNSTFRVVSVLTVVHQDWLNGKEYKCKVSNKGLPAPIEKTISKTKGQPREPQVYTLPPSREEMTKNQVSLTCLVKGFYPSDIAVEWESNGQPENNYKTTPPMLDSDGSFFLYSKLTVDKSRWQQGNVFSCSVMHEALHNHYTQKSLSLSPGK

Substance | IC50 (nM), A549 CAGA12 reporter gene assay, hTGFβ3 (270 pg/ml) [1] [nM] | IC50 (nM), A549 CAGA12 reporter gene assay, hTGFβ1 (640 pg/ml) [2] [nM] | IC50 (nM), A549 CAGA12 reporter gene assay, hTGFβ3 (270 pg/ml) [3] [nM] | IC50 (nM), A549 CAGA12 reporter gene assay, hTGFβ1 (640 pg/ml) [4] [nM]
hTβRIIshort(23-159)-hG2Fc (Fc fusion) | 0.14 | 1.73 | 0.37 | 0.52
hTβRIIshort(23-153/N70D)-hG2Fc (Fc fusion) | – | 17.7 | – | –
hTβRIIshort(35-159)-hG2Fc (Fc fusion) | – | – | > 7.5 | 2.51
hTβRIIshort(23-159/D110K)-hG2Fc (Fc fusion) | – | > 73.6 | – | –
hTβRIIshort(23-153)-hG2Fc (Fc fusion) | 0.14 | 2.62 | – | –
hTβRIIshort(29-159)-hG2Fc (Fc fusion) | – | – | > 7.5 | 2.05
